Source: US6890910B1, “Murd protein and gene of Pseudomonas aeruginosa” (Merck & Co., Inc., priority 1998, dated 2005)

T1: recombinant MurD from P. aeruginosa (Pseudomonas aeruginosa, UniProt Q9HVZ9)
T1 construct: 6x His (pET-15b vector-encoded) (N); made in house; host or cells: E. coli BL21 (DE3)/pLysS
T1 sequence (Q9HVZ9 whole entry, looked up): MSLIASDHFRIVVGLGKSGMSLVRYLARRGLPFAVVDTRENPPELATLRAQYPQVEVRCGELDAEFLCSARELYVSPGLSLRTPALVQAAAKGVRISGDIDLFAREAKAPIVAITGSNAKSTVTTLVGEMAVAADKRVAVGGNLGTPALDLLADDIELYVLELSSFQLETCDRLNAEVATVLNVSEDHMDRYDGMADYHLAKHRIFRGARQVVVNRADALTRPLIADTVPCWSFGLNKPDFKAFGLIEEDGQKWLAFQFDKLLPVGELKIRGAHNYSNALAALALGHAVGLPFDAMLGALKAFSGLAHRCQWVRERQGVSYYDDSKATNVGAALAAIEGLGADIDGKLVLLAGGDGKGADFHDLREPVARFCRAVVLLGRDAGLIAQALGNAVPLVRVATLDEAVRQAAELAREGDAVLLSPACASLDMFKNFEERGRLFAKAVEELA


Columns and labels:
[1] = target: recombinant MurD from E. coli (Escherichia coli, UniProt P14900); conditions: 350 μM UDP-N-acetyl-muramyl-L-alanine
Chain of recombinant MurD from E. coli (P14900 whole entry): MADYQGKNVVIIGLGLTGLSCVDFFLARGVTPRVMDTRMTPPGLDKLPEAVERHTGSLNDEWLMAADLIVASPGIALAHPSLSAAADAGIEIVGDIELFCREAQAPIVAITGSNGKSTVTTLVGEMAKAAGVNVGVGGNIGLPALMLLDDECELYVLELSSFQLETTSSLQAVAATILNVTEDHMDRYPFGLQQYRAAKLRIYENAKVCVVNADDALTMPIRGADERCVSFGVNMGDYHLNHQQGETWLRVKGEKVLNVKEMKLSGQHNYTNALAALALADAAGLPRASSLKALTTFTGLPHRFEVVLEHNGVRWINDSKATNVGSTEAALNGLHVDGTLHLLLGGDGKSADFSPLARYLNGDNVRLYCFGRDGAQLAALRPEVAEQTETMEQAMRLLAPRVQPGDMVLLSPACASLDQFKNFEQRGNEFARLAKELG
Method: The ATP-dependent MurD activity was assayed by monitoring the formation of product ADP using the pyruvate kinase and lactate dehydrogenase coupled enzyme assay. The reaction was monitored spectrophotometrically.
Typically, the assay contained 100 mM BIS-TRIS-propane, pH 8.0, 200 μM NADH, 1 mM ATP, 20 mM PEP, 5 mM MgCl2, 1 mM DTT, 350 μM UDP-N-acetyl-muramyl-L-alanine, 1 mM D-glutamate, 33 units/ml of pyruvate kinase and 1660 units/ml of lactate dehydrogenase in a final volume of 200 or 400 μl. The mixture was incubated at 25° C. for 5 min and the reaction initiated by the addition of 1-10 μg of MurD.
Rates were calculated from the linear portions of the progress curves using the extinction coefficient for NADH, e=6220 cm^−1 M^−1. One unit of MurD activity is equal to 1 μmol of ADP formed per min at 25° C.

[2] = target: T1, recombinant MurD from P. aeruginosa; assay: ATP-dependent MurD activity, pyruvate kinase/lactate dehydrogenase coupled enzyme assay; type: biochemical; conditions: UDP-N-acetylmuramyl-L-ala 350 μM, D-glutamate 1 mM, ATP 1 mM, 200 μl at 25° C.
From the text: The reaction was monitored spectrophotometrically.

Row | Molecule | substrate inhibition [1] | units ([2]; 0.0015 mg protein) [µmol/min] | Specific activity [2]
1 | CC(=O)N[C@H]1C(OP(=O)(O)OP(=O)(O)OC[C@H]2O[C@@H](n3ccc(=O)[nH]c3=O)[C@H](O)[C@@H]2O)O[C@H](CO)[C@@H](O)[C@@H]1O[C@H](C)C(=O)N[C@H](C)C(=O)O (stereo partly drawn) [UDP-N-acetyl-muramyl-L-alanine] | substrate inhibition of the E. coli MurD occurs | – | –
2 | P. aeruginosa MurD: Recombinant UDP-N-acetylmuramyl-L-alanine:D-glutamate ligase of Pseudomonas aeruginosa, over-produced as His-tagged fusion protein in E. coli (protein, listed as Pseudomonas aeruginosa, His tag, Recombinant UDP-N-acetylmuramyl-L-alanine:D-glutamate ligase of Pseudomonas aeruginosa, over-produced as His-tagged fusion protein in E. coli) MSLIASDHFRIVVGLGKSGMSLVRYLARRGLPFAVVDTRENPPELATLRAQYPQVEVRCGELDAEFLCSARELYVSPGLSLRTPALVQAAAKGVRISGDIDLFAREAKAPIVAITGSNAKSTVTTLVGEMAVAADKRVAVGGNLGTPALDLLADDIELYVLELSSFQLETCDRLNAEVATVLNVSEDHMDRYDGMADYHLAKHRIFRGARQVVVNRADALTRPLIADTVPCWSFGLNKPDFKAFGLIEEDGQKWLAFQFDKLLPVGELKIRGAHNYSNALAALALGHAVGLPFDAMLGALKAFSGLAHRCQWVRERQGVSYYDDSKATNVGAALAAIEGLGADIDGKLVLLAGGDGKGADFHDLREPVARFCRAVVLLGRDAGLIAQALGNAVPLVRVATLDEAVRQAAELAREGDAVLLSPACASLDMFKNFEERGRLFAKAVEELA | – | 0.0047 | 3.12 (μmol/min)/mg
